According to US20070142318A1, “Compositions, methods and kits for repressing virulence in gram positive bacteria” (priority 2004, published 2007):
Positions count from the first letter of the chain named. Names and notes keep the numbering of the source. Where two headings read alike, the source gives them in different places.

Legend:
CodY [1] = target: T1, CodY (Bacillus subtilis, UniProt P39779); test: Gel shift assay, stimulation of CodY binding to target DNA by effectors; parameters: species or system B. subtilis; conditions: for stimulation of CodY binding to new target genes and dpp promoter region: amino acids 10-30 mM
T1 sequence (P39779 1-259): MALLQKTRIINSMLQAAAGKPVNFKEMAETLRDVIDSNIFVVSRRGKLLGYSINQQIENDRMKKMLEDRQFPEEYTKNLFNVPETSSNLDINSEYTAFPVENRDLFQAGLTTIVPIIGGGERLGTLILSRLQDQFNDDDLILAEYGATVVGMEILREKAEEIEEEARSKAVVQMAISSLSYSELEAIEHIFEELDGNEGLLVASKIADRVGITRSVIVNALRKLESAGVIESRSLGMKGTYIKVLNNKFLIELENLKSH
Method: A test of whether BCAAs have any direct effect on CodY activity was performed. […] In all cases, the apparent dissociation constant for binding was substantially below the concentration of CodY inside the cell (4 μM, see below). […] By regulating gene expression in response to both the GTP level and the availability of certain amino acids, CodY can insure that the cell responds in a coherent way to many types of nutritional stress.
The effects of GTP and BCAAs at different CodY targets can vary. At several target sites, BCAAs and GTP were each found to have small stimulatory effects on binding (in a gel shift assay), but the mixture strongly stimulates (FIG. 1). […] Some genes may respond to CodY in its GTP-bound conformation, other genes to CodY in its BCAA-bound conformation, and still other genes to CodY bound to both kinds of effectors. These variations could reflect differences in specificity of binding or differences in affinity of binding.
The concentration dependence of stimulation of DNA binding by effectors is assessed. At the dpp promoter, GTP at 600 μM increased the fraction of DNA that was bound by a constant concentration of CodY (in a gel shift assay) from 10% to 50%. Titration assays of this type, using varying concentrations of GTP, isoleucine, and valine, provide a measure of the effective concentrations of each of these effectors.

wild-type cells = conditions: excess nutrients; cited from earlier work
[2] = tested on: ilvB promoter lacZ fusions; conditions: GTP limitation by addition of decoyinine; cited from earlier work
[3] = tested on: CodY (Staphylococcus aureus); test: EMSA; conditions: concentration giving shift; 2 mM GTP + 10 mM each Ile, Val, Leu
[4] = tested on: CodY S215T S215T (Bacillus subtilis); test: EMSA
[5] = tested on: CodY A207D A207D (Bacillus subtilis); test: EMSA; conditions: GTP + ILV; also >500 without effectors
CodY (Bacillus subtilis) = test: EMSA; conditions: 2 mM GTP + 10 mM each Ile, Leu, Val; 150 nM without effectors
[6] = tested on: CodY R214E R214E (Bacillus subtilis); test: EMSA; conditions: GTP + ILV; also >500 without effectors
CodY [7] = target: T1, CodY; conditions: cited from earlier work
CodY [8] = target: T1, CodY; conditions: cited from earlier work; remark: listed apart in the source
dpp-lacZ = dpp-lacZ expression in vivo (β-galactosidase); conditions: for β-galactosidase expression (Miller units) in mid-exponential cells: dpp-lacZ; for derepression of expression in vivo: versus wild type
dpp promoter region = test: Gel mobility shift assay of CodY binding to the dpp promoter region; conditions: CodY concentration that shifted 50% of the DNA
[9] = read-out: Estimated KD (nM), +GTP, ILV, GTP (2 mM) and isoleucine, valine and leucine (10 mM each)
[10] = read-out: Estimated KD (nM), No effectors

Molecule: CC(C)[C@H](N)C(=O)O [valine]
- stimulation of CodY binding to new target genes and dpp promoter region (CodY [1]): stimulated significantly

Molecule: CC(C)C[C@H](N)C(=O)O [leucine]
- stimulation of CodY binding to new target genes and dpp promoter region (CodY [1]): not

Molecule: CC[C@H](C)[C@H](N)C(=O)O [isoleucine]
- stimulation of CodY binding to new target genes and dpp promoter region (CodY [1]): stimulated significantly

Molecule: C=C1O[C@@](CO)(n2cnc3c(N)ncnc32)[C@H](O)[C@@H]1O [decoyinine]
- sporulation of wild-type cells (wild-type cells): failed to sporulate efficiently unless decoyinine was added
- induction of ilvB-lacZ fusions with or without T-box [2]: induced both fusions

Molecule: nuc promoter region
- binding [3]: 160 nM

Molecule: dpp promoter region
- Kd [4]: > 0.5 µM
- Kd [5]: > 0.5 µM
- Kd (CodY (Bacillus subtilis)): 0.02 µM
- Kd [6]: > 0.5 µM

Molecule: Nc1nc2c(ncn2[C@@H]2O[C@H](COP(=O)(O)OP(=O)(O)OP(=O)(O)O)[C@@H](O)[C@H]2O)c(=O)[nH]1 [GTP, guanosine triphosphate]
- repression of dpp transcription by CodY (CodY [7]; 300 μM GTP (typical of early stationary phase cells)): almost no repression
- inhibition of dpp transcription by CodY (CodY [7]; 2 mM GTP): ~80%
- EC50 (CodY [7]; read-out: GTP concentration giving 50% repression of transcription from the dpp promoter): ~1500 µM
- binding to CodY compared with ATP, CTP or UTP (CodY [8]): more avidly
- fraction of DNA bound by a constant concentration of CodY (CodY [1]; dpp promoter, GTP at 600 μM, 10% without): 50%
- effect on CodY binding at the yhdG regulatory region (CodY [1]; yhdG regulatory region, alone or in combination): only a small effect

Molecule: hla promoter region
- binding [3]: 160 nM

B1: A207D (protein, UniProt P39779 2-259, looked up, variant A207D)
Global transcriptional …: ALLQKTRIINSMLQAAAGKPVNFKEMAETLRDVIDSNIFVVSRRGKLLGYSINQQIENDRMKKMLEDRQFPEEYTKNLFNVPETSSNLDINSEYTAFPVENRDLFQAGLTTIVPIIGGGERLGTLILSRLQDQFNDDDLILAEYGATVVGMEILREKAEEIEEEARSKAVVQMAISSLSYSELEAIEHIFEELDGNEGLLVASKIDDRVGITRSVIVNALRKLESAGVIESRSLGMKGTYIKVLNNKFLIELENLKSH
- derepression in vivo (dpp-lacZ): severe derepression
- β-galactosidase expression (Miller units) in mid-exponential cells (dpp-lacZ): 130 Miller units
- Kd (dpp promoter region; [9]): > 500 nM
- Kd (dpp promoter region; [10]): > 500 nM

B2: R214K (protein, UniProt P39779 2-259, looked up, variant R214K)
Global transcriptional …: B1 Global transcriptional … with D206A, R213K
- derepression of expression in vivo (dpp-lacZ): 2 fold

B3: R214E (protein, UniProt P39779 2-259, looked up, variant R214E)
Global transcriptional …: B1 Global transcriptional … with D206A, R213E
- derepression in vivo (dpp-lacZ): severe derepression
- β-galactosidase expression (Miller units) in mid-exponential cells (dpp-lacZ): 94 Miller units
- Kd (dpp promoter region; [9]): > 500 nM
- Kd (dpp promoter region; [10]): > 500 nM

B4: V218A (protein, UniProt P39779 2-259, looked up, variant V218A)
Global transcriptional …: B1 Global transcriptional … with D206A, V217A
- Kd (dpp promoter region; [9]): 100 to 200 nM
- Kd (dpp promoter region; [10]): 250 to 500 nM

B5: S215F (protein, UniProt P39779 2-259, looked up, variant S215F)
Global transcriptional …: B1 Global transcriptional … with D206A, S214F
- derepression in vivo (dpp-lacZ): severe derepression
- β-galactosidase expression (Miller units) in mid-exponential cells (dpp-lacZ): 12 Miller units
- Kd (dpp promoter region; [9]): 350 to 400 nM

B6: WT: wild-type B. subtilis CodY, a GTP-activated repressor protein (protein)
chain: B1 Global transcriptional … with D206A
- β-galactosidase expression (Miller units) in mid-exponential cells (dpp-lacZ): 6 Miller units
- Kd (dpp promoter region; [9]): 20 nM
- Kd (dpp promoter region; [10]): 150 nM

B7: V218D (protein, UniProt P39779 2-259, looked up, variant V218D)
Global transcriptional …: B1 Global transcriptional … with D206A, V217D
- derepression in vivo (dpp-lacZ): severe derepression
- β-galactosidase expression (Miller units) in mid-exponential cells (dpp-lacZ): 14 Miller units
- Kd (dpp promoter region; [9]): 150 to 200 nM

B8: S215T (protein, UniProt P39779 2-259, looked up, variant S215T)
Global transcriptional …: B1 Global transcriptional … with D206A, S214T
- β-galactosidase expression (Miller units) in mid-exponential cells (dpp-lacZ): 150 Miller units
- derepression of expression in vivo (dpp-lacZ): 2 fold
- Kd (dpp promoter region; [9]): > 500 nM
